In paper PMC4872226, “A rationally engineered yeast pyruvyltransferase Pvg1p introduces sialylation-like properties in neo-human-type complex oligosaccharide” (Scientific Reports, 2016):

Molecular target: the molecule itself
Assay: crystal structure; hanging-drop vapor diffusion at 20 °C; 10 mg/mL Pvg1p in 100 mM MOPS-NaOH pH 7.4 with 20 mM PEP and 5 mM pNP-β-Gal; well solution with 10 mM zinc chloride; 2.46 Å; dimer in the asymmetric unit

B1: fission yeast pyruvyltransferase Pvg1p (enzyme, Schizosaccharomyces pombe, UniProt Q9UT27 32-401, looked up)
chain: DLQTLKNPSSLTSPSSSTSVDKKKPLFTKSPRNSASCESTITLQSNLLFTYYKHYFAGIKKVALIGFPDHPNKGDSAIYVAEKKLLDALNIEVVYITAQEADYSASELKSIISDIPRDEFALAFHGGGNFGDLYPDHQHLRELVVRDFPSFTTISFPQSVWYNEQQLLEQASILYAENPNITLVTRDRQSYGFAVDAFGKHNEVLLTPDIVFFMGPIPEIREATPITHDVLILARLDHEGGQQHGAEDYYRDTLNAANLTYSVEDWLLWDPPVAQNPDSSFDDRGQARYEAGAEFLASARVVITDRLHAHILSTLMGIPHIVVENSQMGKITNYHNTWLHGCTLDGVSVVVDSVDKALSLLLEWNEAGYF
notes: Pvg1p, pyruvyltransferase of Schizosaccharomyces pombe; the D32-F401 portion (without the predicted N-terminal transmembrane region) was used for crystallization; disulfide bond C68-C373 seen in the crystal structure; Expression plasmid pET32b-pvg1; also called recombinant Pvg1p
- stoichiometry N: 2
